Test [1] deals with T1, human ASGR1 (asialoglycoprotein receptor 1) on cells (human, UniProt P07306 1-291).
T1 construct: whole, on cells; also called HepG2 cells; CHO-S cells transfected with human ASGR1 full length DNA
T1 sequence (looked up): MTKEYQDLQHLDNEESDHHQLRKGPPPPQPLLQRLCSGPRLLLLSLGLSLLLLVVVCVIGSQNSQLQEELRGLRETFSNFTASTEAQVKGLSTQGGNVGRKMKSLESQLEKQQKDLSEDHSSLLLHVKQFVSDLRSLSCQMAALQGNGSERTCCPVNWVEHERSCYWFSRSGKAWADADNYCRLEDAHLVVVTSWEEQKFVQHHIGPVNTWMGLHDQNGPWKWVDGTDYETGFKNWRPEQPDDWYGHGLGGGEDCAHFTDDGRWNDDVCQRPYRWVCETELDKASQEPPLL
Kind of test: competition flow cytometry on CHO-S cells with human ASGR1; 200 nM F(ab')2 against 33 nM GalNac-hFc.

Test [2] concerns the target T1, human ASGR1 (asialoglycoprotein …). Briefly: Guava flow cytometry screen on HepG2 cells.
Test [3] shares this target. Kind of test: Guava flow cytometry screen on HepG2 cells. The source holds these as a separate data set.
Test [4] has the same target. Kind of test: flow cytometry on HepG2 cells, anti-human IgG PE secondary, MFI (Geo Mean). How it is done:
Briefly, 5×10⁴ HepG2 cells/well were contacted with titrating concentrations of anti-ASGR1 antibodies in FACS Buffer (FB: PBS+2% FBS+1 mM CaCl₂)) for 30 minutes at 4° C. Cells were washed twice in FB, then incubated in anti-human IgG PE secondary for 30 minutes at 4° C. Cells were washed twice in FB, then analyzed by flow cytometry.

Test [5] addresses T2, Cynomolgus macaque ASGR1 on CHO-S cells (Cynomolgus macaque).
T2 construct: whole, on cells; also called Cynomologous ASGR1
Kind of test: Guava flow cytometry on CHO-S cells expressing cynomolgus ASGR1 (repeat of Table 15). How it is done: (§1) Anti-human ASGR1 antibodies of this disclosure were examined for cross-reactivity with Cynomolgus macaque and rat ASGR1. Briefly, sequence encoding Cynomolgus macaque or rat ASGR1 was transiently transfected into CHO-S cells. Transfected cells were before performing cell binding assay. A total of about 1.5×10⁴ transfected cells/well were added to 96-well V-bottom assay plate, incubated at 37° C., 5% CO2 for 48-72 hours, and then washed with culture medium before adding 100 μl of each ASGR1 antibody at different concentrations starting from 100 nM and 3-fold dilutions to a total of eight wells. The cells with antibody were incubated for 40 minutes at 4° C., then washed three times with 200 μl of fresh culture medium. To each well was added 50 μl PE conjugated goat anti-human Fc (SouthemBiotech) at 1:200 dilution in culture medium and then incubated at 4° C. for 20 minutes. After washing the plate once, the treated cells were resuspended in 200 μl culture medium and then the stained cells were analyzed on GUAVA® using Incyte software.

Test [6] concerns the target T2, Cynomolgus macaque ASGR1 on CHO-S cells. Kind of test: Guava flow cytometry on CHO-S cells expressing cynomolgus ASGR1. How it is done: as §1

Read-outs that look alike come from different tables or passages of the source.

B1: F(ab')2 fragment of hzH8K-1 (F(ab')2)
VH: QVQLQESGPGLVKPSQTLSLTCTVSGGSISSDYAWNWIRQHPGKGLEWIGYRSYRGSTSYNPSLKSRVTISVDTSKNQFSLKLSSVTAADTAVYYCARRGYYGSSSHWYFDVWGQGTTVTVSS
VL: DIQMTQSPSSLSASVGDRVTITCRASENIYSYLAWYQQKPGKAPKLLIYNAKTLAEGVPSRFSGSGSGTDFTLTISSLQPEDFATYYCQHHYGTPLTFGGGTKVEIK
B1: the “% Blocking GalNac Binding” value in test [1] was 81.3%.

B2: hzG2D-11 (antibody, human IgG1, kappa)
heavy: not shown
light: DIQMTQSPSSLSASVGDRVTITCKASQVINSYLSWFQQKPGKAPKSLIYRANTLVDGVPSRFSGSGSGTDFTLTISSLQPEDFATYYCLQYAEFPYTFGGGTKVEIKRTVAAPSVFIFPPSDEQLKSGTASVVCLLNNFYPREAKVQWKVDNALQSGNSQESVTEQDSKDSTYSLSSTLTLSKADYEKHKVYACEVTHQGLSSPVTKSFNRGEC
With B2, in test [2], the binding result was “binds”.

B3: hzG2D-20 (antibody, human IgG1, kappa)
heavy: not shown
light: DIQMTQSPSSLSASVGDRVTITCKASQVINSYLSWFQQKPGKAPKSLIYRANTLVDGVPSRFSGSGSGTDFTLTISSLQPEDFATYYCLQYAEFPYTFGGGTKVEIKRTVAAPSVFIFPPSDEQLKSGTASVVCLLNNFYPREAKVQWKVDNALQSGNSQESVTEQDSKDSTYSLSSTLTLSKADYEKHKVYACEVTHQGLSSPVTKSFNRGEC
B3: the binding result in test [2] was “binds”.

B4: hzG2D-17 (antibody, human IgG1, kappa, V domains shown)
VH: QVQLVQSGAEVKKPGASVKVSCKASGYTFTGYYMHWVRQAPGQRLEWMGRINPNNGATNYNQNFKDKASLTVDTSASTAYMELSSLRSEDTAVYYCARVNFYYWGQGTTLTVSS
VL: DIKMTQSPSSMYASLGERVTITCKASQVINSYLSWFQQKPGKSPETLIYRANTLVDGVPSRFSGSGSGQDYSLTISSLEYEDLGIYYCLQYAEFPYTFGGGTKLEIKR
notes: humanized VH with the mouse G2D VL
Turning to B4, the binding result in test [2] is “binds”.

B5: F(ab')2 fragment of G2D (F(ab')2)
VH: EVQLQQSGPELVKPGASVKISCKASGYSFTGYYMHWVKQSHVKSLEWIGRINPNNGATNYNQNFKDKASLTVDKSSSTAYMEFHSLTSEDSAVYYCTSVNFYYWGQGTTLTVSS
VL: DIKMTQSPSSMYASLGERVTITCKASQVINSYLSWFQQKPGKSPETLIYRANTLVDGVPSRFSGSGSGQDYSLTISSLEYEDLGIYYCLQYAEFPYTFGGGTKLEIK
For the molecule B5, the “% Blocking GalNac Binding” value in test [1] was -0.3%.

B6: F(ab')2 fragment of K2E (F(ab')2)
VH: QVQLQQSAAELARPGASVKMSCKASGYTFTSYTMHWVKQRPGQGLEWIGYISPSSGYTEYNQKFKDKTTLTADKSSSTAYMQLSSLTSEDSAVYYCARKFDYWGQGTTLTVSS
VL: DIKMTQSPSSMYASLGERVTITCKASQDINSYLSWFQQKPGKSPKTLIYRANRLVDGVPSRFSGSGSGQDFSLTISSLEYEDMGIYYCLQYDEFPFTFGSGTKLEIK
Take B6: the “% Blocking GalNac Binding” value in test [1] was determined as 10%.

B7: F(ab')2 fragment of J4F (F(ab')2)
VH: QVQLQQSGDDLVKPGASVKLSCKASGYTFTSYWINWIKQRPGQGLEWIGRIVPGSGSTYYNEMFKDKATLTVDTSSSTAYIQLSSLSSEDSAVYFCARKPNFDVWGAGTTVTVSS
VL: DIVMTQSQKFMSTSVGDRVSVTCKASQNVGTNVAWYQQKPGQSPKAVIYSASYRFSGVPDRLTGSGSGTDFTLTITNVQSEDLAEYFCQQYNSYPLTFGAGTKLELK
In the case of B7, in test [1], the “% Blocking GalNac Binding” value is -32.1%.

B8: hzL4L-5 (antibody, IgG1, V domains shown)
VH: QVQLQESGPGLVKPSQTLSLTCTVSGYSISSDYAWNWIRQHPGKGLEWIGYISYSGSTRYNPSLKSRISITRDTSKNQFSLKLSSVTAADTAVYYCARRYRYDEGYGMDYWGQGTTVTVSS
VL: DIQMTQSPSSLSASVGDRVTITCRASENIYSNLAWYQQKPGKAPKLLIYAATNLADGVPSRFSGSGSGTDFTLTISSLQPEDFATYYCQHFWGTPPWTFGGGTKVEIK
notes: IgG1, kappa
Take B8: the binding result in test [3] is given as “binds”.

B9: F(ab')2 fragment of hzL4L-14 (F(ab')2)
VH: QVQLQESGPGLVKPSQTLSLTCTVSGYSISSDYAWNWIRQHPGKGLEWIGYISYSGSTRYNPSLKSRVTITRDTSKNQFSLKLSSVTAADTAVYYCARRYRYDEGYGMDYWGQGTTVTVSS
VL: DIQMTQSPSSLSASVGDRVTITCRASENIYSNLAWYQQKPGKAPKLLIYAATNLAEGVPSRFSGSGSGTDFTLTISSLQPEDFATYYCQHFWGTPPWTFGGGTKVEIK
For the molecule B9, the “% Blocking GalNac Binding” value in test [1] was 90.7%.

B10: hzL4L-6 (antibody, IgG1, V domains shown)
VH: QVQLQESGPGLVKPSQTLSLTCTVSGYSITSDYAWNWIRQHPGKGLEWIGYISYSGSTRYNPSLKSRVTITRDTSKNQFSLKLSSVTAADTAVYYCARRYRYDEGYGMDYWGQGTTVTVSS
VL: DIQMTQSPSSLSASVGDRVTITCRASENIYSNLAWYQQKPGKAPKLLIYAATNLADGVPSRFSGSGSGTDFTLTISSLQPEDFATYYCQHFWGTPPWTFGGGTKVEIK
notes: IgG1, kappa
B10: the binding result in test [3] is “binds”.

B11: hzL4L-10 (antibody, IgG1, V domains shown)
VH: QVQLQESGPGLVKPSQTLSLTCTVSGYSITSDYAWNWIRQHPGKGLEWIGYISYSGSTRYNPSLKSRISITRDTSKNQFSLKLSSVTAADTAVYYCARRYRYDEGYGMDYWGQGTTVTVSS
VL: DIQMTQSPSSLSASVGDRVTITCRASENIYSNLAWYQQKPGKAPKLLIYAATNLASGVPSRFSGSGSGTDFTLTISSLQPEDFATYYCQHFWGTPPWTFGGGTKVEIK
notes: IgG1, kappa
Take B11: the binding result in test [3] was “binds”.

B12: hzL4L-2 (antibody, IgG1, V domains shown)
VH: QVQLQESGPGLVKPSQTLSLTCTVSGGSITSDYAWNWIRQHPGKGLEWIGYISYSGSTRYNPSLKSRISITRDTSKNQFSLKLSSVTAADTAVYYCARRYRYDEGYGMDYWGQGTTVTVSS
VL: DIQMTQSPSSLSASVGDRVTITCRASENIYSNLAWYQQKPGKAPKLLIYAATNLADGVPSRFSGSGSGTDFTLTISSLQPEDFATYYCQHFWGTPPWTFGGGTKVEIK
notes: IgG1, kappa
In the case of B12, the binding result in test [3] is recorded as “binds”.

B13: ASGR1 mAb-C (antibody, V domains shown)
VH: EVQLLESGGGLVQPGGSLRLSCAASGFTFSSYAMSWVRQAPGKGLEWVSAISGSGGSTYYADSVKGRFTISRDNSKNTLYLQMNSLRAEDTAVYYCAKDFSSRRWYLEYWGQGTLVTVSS
VL: SSELTQDPAVSVALGQTVRITCQGDSLRSYYASWYQQKPGQAPVLVIYGKNNRPSGIPDRFSGSSSGNTASLTITGAQAEDEADYYCNSLERIGYLSYVFGGGTKLTVL
notes: control with CDRs of anti-ASGR1 antibody 4F3; mouse IgG2a or human IgG1 isotype by assay; also called 4F3
As to B13, the “EC50 (read off the curve)” value in test [4] was about 0.3 µg/mL. In addition, the EC50 in test [5] and in test [6] was 2.35 nM throughout.

B14: F(ab')2 fragment of ASGR1 mAb-C (F(ab')2)
VH: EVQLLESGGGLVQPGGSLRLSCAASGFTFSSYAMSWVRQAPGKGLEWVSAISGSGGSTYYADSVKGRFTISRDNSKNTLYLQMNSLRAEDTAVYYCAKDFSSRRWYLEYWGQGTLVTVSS
VL: SSELTQDPAVSVALGQTVRITCQGDSLRSYYASWYQQKPGQAPVLVIYGKNNRPSGIPDRFSGSSSGNTASLTITGAQAEDEADYYCNSLERIGYLSYVFGGGTKLTVL
modifications: F(ab')2 fragment: two Fab arms joined at the hinge, with the Fc removed.
For B14, the “% Blocking GalNac Binding” value in test [1] is -5.4%.

Source of the values: patent US20210130473A1 (SILVERBACK THERAPEUTICS, published 2021).
